A word on the tissue uptake: it is the percentage of the injected dose found per gram of tissue.

This note sets out measurements from patent US12551583B2, “Radiolabeled ligands for targeted PET/SPECT imaging and methods of their use” (MEMORIAL SLOAN KETTERING CANCER CENTER, priority 2016, dated 2026).

In data set [1] the test system is LNCaP tumor-bearing male nude mice. The following applies: mouse, in vivo. On the procedure: (§1) LNCaP shoulder nude mouse xenografts. The cells were removed from the flasks, concentrated, and resuspended in minimal media for cell counting. The cells were then diluted to contain approximately 3-6 million cells in 150 μL of 1:1 media and matrigel (or shoulder xenografts). Following an MSKCC Institutional Animal Care and Use Committee approved protocol, 150 μL of the cell suspension was injected subcutaneously in 6-8 week old nude male mice (CRL). Mice were used in studies at 3-8 weeks post inoculation. The mice were injected with 50-75 μCi (0.9-0.4 nmol) of the respective radiopharmaceutical for in vivo biodistribution or 500-600 μCi (9-11 nmol) for in vivo imaging. […]
(§2) In vivo animal PET imaging and biodistribution. […] All images were analyzed using ASIPro VM (Concorde Microsystems). […] All SPECT images were reconstructed using HiSPECT and analyzed using InVivoScope. […] The mass injected was corrected by the percent of radioactivity injected. Four to five aliquots (10 μL) were weighed and counted as internal standards for each study. All of the collected organs were counted using an automatic gamma counter (Wizard 3″, PerkinElmer, Waltham, MA). The total injected dose was found as the mass injected dose×fraction radioactivity injected×internal standard average counts/g. The percent injected dose (% ID) was determined as the counts for the tissue×100/total injected dose. […]

Data set [2] in a line: in vivo. The following applies: female, BALB/c, mouse, iv, total radioactivity; for tissue uptake at 24 h: 4T1 tumoral uptake. On the procedure: (§3) 4T1 orthotopic BALB/c mouse model. The cells were removed from the flasks, concentrated, and resuspended in minimal media for cell counting. The cells were then diluted to contain approximately 1 million cells in 30 μL of media (for orthotopic allografts). Following an MSKCC Institutional Animal Care and Use Committee approved protocol, 8-10 week old BALB/c mice (Charles River Laboratories, Wilmington, MA) were surgically implanted with one million 4T1 cancer cells into the first or the last mammary fat pad of the right side of the animal using aseptic surgical techniques and sterile staple closures while the mice were under anesthetic. Additionally, mice were given injections of meloxicam (24 h pain killer) in the scruff and bupivacaine intradermally prior to surgical incisions. One day post surgery, the mice were again given meloxicam and checked to ensure that the closure was healing. Two and three days post surgery, the mice were checked to ensure that the animals were healthy and recovering well from the surgery. Five to seven days post surgery, the staples were removed. Five to nine days post surgery, the mice were injected with 50-75 μCi (0.9-0.4 nmol) of the respective radiopharmaceutical for in vivo biodistribution or 500-600 μCi (9-11 nmol) for in vivo imaging. The mice receiving ^64Cu-NOTA-pHLIP were sacrificed at 1, 2, 4, 12, 24, 36, and 48 h; the mice receiving [^18F]—AlF-NOTA-pHLIP were sacrificed at 0.5, 1, 2, 4, 6 and 8 h. The 4T1 tumors in this study were purposely used 5-9 days after inoculation to ensure lower tumoral pH. Animal models. Animal studies were conducted according to MSKCC IACUC-approved animal protocol. 4T1 (orthotopic breast cancer allografts of 1×10^6 cells surgically implanted in the mammary fat pad) and B16-F10 (orthotopic melanoma allografts of 1×10^5 cells injected intradermally on the shoulder) tumors were orthotopically inoculated in media in female BALB/c and C57Bl/6 mice (Charles River Laboratories (CRL)), respectively. Additionally, PC3 (3×10^6 cells) or LNCaP (3-6×10^6 cells) tumors were subcutaneously xenografted on the shoulder of athymic nude male mice (CRL). Mice were used once tumor volumes were approximately 90-300 mm^3. In vivo animal PET imaging and biodistribution. Mice were injected with radiolabeled NOTA-pHLIP derivatives i.v. (500-700 μCi/mouse for PET or SPECT imaging studies and 25-100 μCi/mouse for biodistribution studies). All injections were less than 200 μL with <10% EtOH in sterile PBS. PET images were obtained with the mice under anesthesia in an Inveon PET-CT or microPET Focus 120 (Siemens) at 0.5-48 h p.i. All images were analyzed using ASIPro VM (Concorde Microsystems). SPECT images were obtained with the mice under anesthesia in a NanoSPECT/CT Plus at 4-24 h p.i. All SPECT images were reconstructed using HiSPECT and analyzed using InVivoScope. Dissections for ex vivo biodistribution were performed on mice after CO2 asphyxiation or cervical dislocation while anesthetized at reported time points. Weight of the syringe prior to injection and after injection was used to determine the mass of injectate. Activity of the syringe prior to injection and after injection was used to determine the percent of injectate administered. The mass injected was corrected by the percent of radioactivity injected. Four to five aliquots (10 μL) were weighed and counted as internal standards for each study. All of the collected organs were counted using an automatic gamma counter (Wizard 3″, PerkinElmer, Waltham, MA). The total injected dose was found as the mass injected dose×fraction radioactivity injected×internal standard average counts/g. The percent injected dose (% ID) was determined as the counts for the tissue×100/total injected dose. The % ID/g was calculated as the % ID/tissue weight. The average and standard deviation of the % ID and % ID/g was determined using normal methods (n−1) for each set of mice.

Data set [3] concerns PC3 tumor-bearing male nude mice. The following applies: mouse, in vivo. How it is done:
as §1, with “PC3” for “LNCaP”, “3” for “3-6”, “(for” for “(or”, “6-9” for “6-8”, “3” for “3-8”
as §2

The test system of data set [4] is 4T1 orthotopic tumor-bearing BALB/c mice. The data set can be described thus: in vivo. The following applies: female, BALB/c, mouse, iv. On the procedure: as §3

On to `CC(C)C[C@@H](NC(=O)[C@@H](CC(C)C)NC(=O)[C@@H](CC(=O)O)NC(=O)[C@@H](CC(C)C)NC(=O)[C@@H](CC(C)C)NC(=O)[C@@H](CC(C)C)NC(=O)[C@H](NC(=O)[C@@H](CC(=O)O)NC(=O)[C@H](NC(=O)[C@H]1CCCN1C(=O)[C@@H](Cc1ccccc1)NC(=O)[C@@H](CC(C)C)NC(=O)[C@@H](CC(C)C)NC(=O)[C@@H](CC(=O)O)NC(=O)[C@@H](CC(C)C)NC(=O)[C@@H](Cc1ccc(O)cc1)NC(=O)[C@@H](C)NC(=O)[C@@H](CCCNC(=N)N)NC(=O)[C@@H](Cc1c[nH]c2ccccc12)NC(=O)[C@H]1CCCN1C(=O)[C@@H](CC(N)=O)NC(=O)[C@@H](CCC(N)=O)NC(=O)[C@@H](CC(=O)O)NC(=O)[C@@H](CC(=O)O)NC(=O)[C@@H](CSC1CC(=O)N(CCNC(=O)CN2CCN(CC(=O)O)CCN(CC(=O)O)CC2)C1=O)NC(=O)[C@@H](C)N)[C@H](C)O)[C@H](C)O)C(=O)N[C@H](Cc1c[nH]c2ccccc12)C(=O)O` (single isomer, unassigned) [^64Cu-NO2A-cysVar3, metal not drawn], for which the figures for the “tumor:bone ratio” value in data set [1] and in data set [3] were 4.2±1.7 and 2.7±0.6, respectively. Also, the entries for the “tumor:muscle ratio” value in data set [1] and in data set [3] were 6±2 and 7.4±1.3, respectively. The tissue uptake at 24 h in data set [2] (50 uCi) came to 19.2 ± 1.8 %ID/g.

As for `CC(C)C[C@@H](NC(=O)[C@@H](Cc1ccc(O)cc1)NC(=O)[C@@H](C)NC(=O)[C@@H](CCCNC(=N)N)NC(=O)[C@@H](Cc1c[nH]c2ccccc12)NC(=O)[C@H]1CCCN1C(=O)[C@@H](CC(N)=O)NC(=O)[C@@H](CCC(N)=O)NC(=O)[C@@H](CC(=O)O)NC(=O)[C@@H](CC(=O)O)NC(=O)[C@@H](C)N)C(=O)N[C@H](CC(=O)O)C(=O)N[C@H](CC(C)C)C(=O)N[C@H](CC(C)C)C(=O)N[C@H](Cc1ccccc1)C(=O)N1CCC[C@@H]1C(=O)N[C@@H](C(=O)N[C@H](CC(=O)O)C(=O)N[C@@H](C(=O)N[C@H](CC(C)C)C(=O)N[C@H](CC(C)C)C(=O)N[C@H](CC(C)C)C(=O)N[C@H](CC(=O)O)C(=O)N[C@H](CC(C)C)C(=O)N[C@H](CC(C)C)C(=O)N[C@H](Cc1c[nH]c2ccccc12)C(=O)N[C@H](CSC1CC(=O)N(CCNC(=O)CN2CCN(CC(=O)O)CCN(CC(=O)O)CC2)C1=O)C(=O)NCC(=O)O)[C@H](C)O)[C@H](C)O` (stereo partly shown) [^67Ga-NO2A-C^27Var3, metal not drawn], the tissue uptake at 24 h in data set [2] (50 uCi) came to 23 ± 5 %ID/g. The tissue uptake at 4 h in data set [2] (biodistribution, Tumor (4T1 tumoral uptake)) worked out at 20.5 ± 1 %ID/g.

Take `CC(C)C[C@@H](NC(=O)[C@@H](CC(C)C)NC(=O)[C@@H](CC(=O)O)NC(=O)[C@@H](CC(C)C)NC(=O)[C@@H](CC(C)C)NC(=O)[C@@H](CC(C)C)NC(=O)[C@H](NC(=O)[C@@H](CC(=O)O)NC(=O)[C@H](NC(=O)[C@H]1CCCN1C(=O)[C@@H](Cc1ccccc1)NC(=O)[C@@H](CC(C)C)NC(=O)[C@@H](CC(C)C)NC(=O)[C@@H](CC(=O)O)NC(=O)[C@@H](CC(C)C)NC(=O)[C@@H](Cc1ccc(O)cc1)NC(=O)[C@@H](C)NC(=O)[C@@H](CCCNC(=N)N)NC(=O)[C@@H](Cc1c[nH]c2ccccc12)NC(=O)[C@H]1CCCN1C(=O)[C@@H](CC(N)=O)NC(=O)[C@@H](CCC(N)=O)NC(=O)[C@@H](CC(=O)O)NC(=O)[C@@H](CC(=O)O)NC(=O)[C@@H](CSC1CC(=O)N(CCNC(=O)CN2CCN(CC(=O)O)CCN(CC(=O)O)CC2)C1=O)NC(=O)[C@@H](C)N)[C@H](C)O)[C@H](C)O)C(=O)N[C@H](Cc1c[nH]c2ccccc12)C(=O)O` (single isomer, unassigned) [^67Ga-NO2A-cysVar3, metal not drawn]: the tissue uptake at 24 h in data set [2] (500 uCi) stood at 34 ± 3 %ID/g. In addition, in data set [4] (50 uCi, 24 h), the 4T1 tumoral uptake was determined as 26±4 % ID/g. Also, the “biodistribution, Tumor (4T1 tumoral uptake)” value in data set [4] (4 h) is recorded as 12±3 % ID/g.
